Source: a protein production outcome set (Wang et al. 2014)

Assay: label from the status in PepcDB records
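Further: failed if final PepcDB status was selected cloned or expressed and not failed if soluble or beyond.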

Sequence	protein production
MKSIYYLSADDLFQMNTFLIQTYSPAEQIGIKDRNALEMASNQPAQFVFDVDLYPTIEEKAAILMINIATKHCFYNANKRTAVMATDLFLQLNGYDFQLDTQEGVDLLVFIATYRSDFDQLKNDVSKVIRAKLNHTSSHLEHHHHHH	not failed
MDIYIGFSLQIYVIQVRRKPTENLQKTYKKSGNGILFICLIANCEICGTNLLTSELYIPTFTSKTKVMKKRVSAVVIVLVCLGGVACIKTLSTSSVGLPQLAFDNIEALASGESSAYRCYGIGDVDCHGDKVDKMYSGYSLK	failed
MRPADRCRSPTGRPATGRHRPDIFTNTVEWDAFEAAPLYGDTTSSFVCQSRMTGEYFPKMGGHAMKNRLACTAVIAAIFCTTSASAQKLPEIWEVTKLVPGSAFHGVHGLGIDKAGHLFAGSVAGAMLYEVDIASGTAKVAIPAPIGMADDIAFAPDGTMAWTGFLAGDLYSRKGDGPIKKLASGLPGINSLAFRKDGRLYATTVFLGDTLYEIDVEGVKPPRQIMEKMGGLNGFEFGPDDKLYGPLWFKGQVAKVDVDKAELTVVADGFKVPAAVNFDSKGNLWVVDTALGQLVRVDPKSGAKTMVAQLKPSLDNLAIDEKDRIYVSNMADNGIQEVDPASGQAKQIIIGKLALPGGIGVTSENGKDTIHVADVFAYRTVDGTTGEVTEKARMHAAGVTLEYPMSATAKGNDVILSSWFTGTVQVIDNKTGATRDMLHDFKAPHDAIVLEDGSILVAELGTKSLVRVSGEHGKDRTTLIGDLEGPVGLVAGSRGEVYVTEAFAGVVSKIEQNGEKTVLVKELKMPEGLARTSDGKLIVAEVGARRLIEITPEDGKITEIAADLPIGLAGAPGGLPTHIPTGVAIGATGVIYFSSDIENAIYKAVKK	failed
MKDLTQGSIPKHLISMALPMMIGMLIQTLYFIVDLYFVGKLGSAALAGLSLAGNAMFLIFALTQILNVSTAALISHAVGAKDQQDANLTFNQSMMLSTVVGIIVCIIGYFGAQDYLNLISQDSETVMMGLTYLHWFIPCMALQFIMVSISSALRGTGIVKPTMVIQTLSILLNIILSPILITGWGSGYAMGIAGAGFASSLSVIFAVVLLCYYFITTDKYVSVDFSLWHINVPRIKKLLAIGLPAGGEFFLMFVYMGAIYWLIKPFGAEAQAAFGLGSRVMQALFLPAMAIAFAAPAIAGQNFGAQNYQRVRDTFRWTAIMTCSLMAIILLICLSQAEWMLTHFSDDREVILISVAFLQMICWNFVPAGLVFTCSGMFQALGNTMPALLSTATRLITFILPALWLSKQSDFQIEQLWYVSVATVCLQSSVSFYFLKREFKKRLPNDNLSNECSDELNKNKLIT	failed
MSPPLDHAWIAARIPHSGAMCLLDQVVTWDDTHIRCTTTSHRAPDNPLRAHGRLAAVCGIEYAAQAMAVHGAILGNAQDRPRAGFLASVRSVEAHVERLDTIEAPLTIEAERIGGDGNNVLYRFSVRCGERVLLTGRAAVVLDAAGLGLPDAGALAKANAQARLEHHHHHH	failed
MAKKAMENGYKLILGSQSMARKQILAEMGYDFTIVTADIDEKAIRKEKPEDLVVTIAEAKANEIILKLGGENQFTQDSQPTLLITADTVVVYKGWDKAEVYFHEIPEHVIDDLIDDAITFKVAGGLMLEHPLISPFIDSVVGGVDTVMGLSKELTEKFINDVL	failed
MLQSHIMAGNCTVKPARMTRAPYARHELKSTNSGCDESPAALERRVAELLLVADFGAVVGSILDPRQVCEVASSWLGETLGWQMLSVCCHDFSTGTMRGGAGRGRHLSKKRQEGATSTVFIAAAQKGLSDAADVRTIPFPDGSGTLSLSRQSLAESQYSDEFFGGVVENLARSLAAARECDRLKNLSMRDHLTGLYNRRVFEAMLEVEARKRTTKPFSLLLIDLDDFKRVNDTYGHGAGDQVLVAVAKMLRLSFRKSDVVSRYGGEEFGVLLPDTSQDSARVVAERFRQNVATLSLPVNKEKIMPTVSVGIASVTLRLGIEVADVIEEADRALYQAKVTGKNRVCSSLLGENS	failed
MDHVQISVQKLDEILKLNGSALLNRVTLDIHQQLKSHCTCVVEVAHLQHAAHTISFASGGEISDNLSYHLSGTPCEKVAKDIGEHIFYQDQVYKRFPEDQMFQDDGVQAYLGLPLKTQSGEVLGILLSTFTRSIHAKEAQDVLELHRFYANVIIHSLREKWVSERSDKLLNQLSYEVSHDNLTGLLNRSCLADTLETLTQQATRPFNLAYLDIDNFKSINDINGNYIGDQIIKFTANAIQQSLSSPNNAFRVAGDEFAFITYDEDPVAVCQEVLDKIEAGYSDKSNRISFTVSIGIARAPVHMLNSDELILNASLALKDCKKHRDTRIQHYDTHLSALYHRQTQLIEAMRIQLSTSITESHELYVVLQPIVDVNNDRWDYFEILARWNSSVYGNISPAEFIEAAEQSGLIIELGERIIELACIAKQELEAHLGYTVKLSINCSAHELVDSNRYINHLTTLLERYGHDASDFVIELTETVLLSQSGREQMVLNSLRYLGFKVALDDFGTGYSSLNYIHNYPIDSIKIDATFVRNMLSNKTSEQVVYLIAQLAQLLDVDLIAEGVEDDRALNKLIDMGCHYIQGYFYSRPHNVDELVHMINDRQVKRA	failed
MSLKIAAFGEVMLRFTPPEYLMLEQTEQLRMNFVGTGVNLLANLAHFQLETALITKLPANRLGEAGKAALRKLGISDQWVGEKGDHIGSFFAEMGYGIRPTQVTYQNRHQSAFGISEAKDYDFEAFLAEVDMVHICGISLSLTEKTRDAALILAQKAHAYQKKVCFDFNYRPSLNTANSALFMRQQYERILPYCDIVFGSRRDLVELLGFIPREDLEGEAQETELIQRFMSQYNLEWFAGTTRSHSQNQNYLSGYLYTQNEYQQSEKRPLLNLDRIGAGDAYAAGILYGYSQNWSLEKAVTFATVNGVLAHTIQGDIPLTTVKQVNHVLEHPNIDLIREGHHHHHH	not failed
MNGVELTLTGAEVLLPGGPARRDLCLSGGQVVDAPAGRQVDLSGYLVLPGIVDLHGDGFERHMAPRRGAMKEMGEGVVAAEAELAANGITTAVLAQFWSWEGGLRGPDFAAGVFQAIRQVQGSLVTDLIPQLRFETHLLEDYAALPDRLAEWQVPYVVFNDHLPHDRLAEGRKPPRLAGQALKAGRSPEAHLALLQALHANGPQVPAALDKLCAELHRRGVRMGSHDDHSAEDCATGQGRGLTISEFPETLEAAEATRASGGHVILGSPNVVRGGSHKGNVSALDLITMGLCDALASDYHYPSPRRAALMLVRTGLLDLAAAWALVSSGPARVLGLDDRGELAPGKRADLVILDAQSHRVAATFAAGRVSYMSGDVATRFLA	failed
MNIGLLEALDQLEEEKGISKEEVIPILEKALVSAYRKNFGNSKNVEVVIDRNTGNIKVYQLLEVVEEVEDPATQISLEEAKKIDPLAEVGSIVKKELNVKNFGRIAAQTAKQVLIQRIRELEKEKQFEKYSELKGTVTTAEVIRVMGEWADIRIGKLETRLPKKEWIPGEEIKAGDLVKVYIIDVVKTTKGPKILVSRRVPEFVIGLMKLEIPEVENGIVEIKAIAREPGVRTKVAVASNDPNVDPIGACIGEGGSRIAAILKELKGEKLDVLKWSDDPKQLIANALAPATVIEVEILDKENKAARVLVPPTQLSLAIGKGGQNARLAAKLTGWKIDIKPIMNL	not failed
GQTFAGVIRGVQSYGFFVQIEALQVEGLVHVSSPKDDWYEYRSRQQRLIGRKNRRQFGLGDRVEVEIRNVDYYRQQIDLGVLPLP	failed
MKKGAFITQIVIYGLILLASSLIANLVNKIWPAFPMPTPLIGMILLYLLLTFKVVKLEQVAGVSNFFVQFISLIFIPSGIALVTKLDVLKAEGVQIVIVIIVSTLMLLLFTAGIAWVLIQVKEWFIARRTNSNVELEED	failed
MIRNTSNGWGSVSRWLHWILALTIIGMIGFGWWMNHIPARPDRFFYRSIHADIGYVILLLTVLRLVWRVVNPTPALPADSQPWQRLAARISHGALYLAVIAVIVLGWAHSGAHAPDYSDFFGLFHVPQFTSPDRAAANAYEDRHILFAYVLLALIAVHVVAALWHHFIRRDRVVTRMVADEAG	failed
MTEWYVVLPATILLIALSAFFVIIEFALLAARRNRLEETVETSRSSRAALRSLNELTLMLAGAQLGITMVTFALGAITKPWVHYALMPLFEWARIPLVMADVIAFILSLFIVTFLHLVIGEMAPKSWAIAHPETALRTIAIPARGFINLFRPLLQWINKMANDLVRKVGETPVDRAAAGGYDTDTLHALIEHSRETGALDQQSAAQISGIIKLDKITVGQTLTASPFTHSASATVAEVQAAAQRSGSLRVLIDAPSHLFPHVIHVRDTLGASPDEKASKWSRPILTVAETDTLHQALEYMREHNEQISAVLSADGKTVLGVITWDHILKYLWPASV	failed
MPRLPRPPGSSTLRPGAVALGRPDPGPDLNSPEGLIRAARDWLGAGDDQRARLALDRALALRPRAAEALLLRGLVDQRRGDLAAAAEWFRRAIRARKDFADAHLNLGSCLIGLGQTEEALRQFGRAVALAPGMALAHLNLAQALLDQGDLGRARSAIDRARALAPDALPILLARARILAAQEDYEAAGAAWEDCVARAPGDVLVLNDAANFLLEDNRVEDSLALYRRAVALAPTSQEVRKNLIRALMTTGALDEAEAEAVGWLGTQGEDPRFRRLLGDVLVRAGRFPEARSAYVAAWDALPEDDNIPLGLTATGKMKSGEALGDRILERWTAQGAAGVVSADIAYAAGKVLDDRQDYDGAFAAFAQANRLKAADHPFDADAHDRFVEAVSTVFTPALFERFAGLGSPSETPVLVVGLPRSGTTLVEQIIASHPQAAGAGELTHVSRFEHSLPWRVGEAGRRGYPACVAGLDGAILDRFTAHYLHELTRIGPKARRVVDKLPNNFLRLGLFALAFPKARIIHCRRDLVDTCLSLYFQSFAGGHEYRHDLVSLGRYARAYLAMMAHWRRVLPLPMLEVDYADVVADQEKASRTMLEFLGLAWDEVVLRFHKREATVATASRWQVRQPIYATSVARWRRYEQHLSPLLLSLEGKKPSKG	failed
MGLTSHKYKYVSIYFLALLFLGIAVIESLHISHTRDLQEGLRQQAKEDLSIVRFQLEAEILGDIYTVKGLTTLLTLDPDLNIYQWEPLSAAVIRNSDHLRSLGIAPNDVVAFSYPLPQTNALLGLDYRTVPQQWQSIKKAREIKQTFVSGPVDLVQGGRALVIREPIFYDPPKDTRYWGVLSVVMDWDSLLSATSIYSFGEHFQVAIRGLDSRGSEGDVFFGEPRVFEHAFAQENVYFPYGSWRIAVAEKQDLLQQLSWYTRNAVRLLGYSVLLVLMAGFGVIMRLYQVAEERALHDPLTHLPNRRYFIYTIEHYFENAKRSHSEGNFALLNIDIDRFKSINDSHGHSAGDKVLVACAERIKSSLRVSDLVARIGGDEFLVLIPRIHREQDVLKVSDNILKRISETPIVYDDKLIHVRVSIGYALYDQSFATPDEMFKLADERMYTAKRRQNPLYRF	failed
MQTSNITNHERNDSSWMSTVKSTTEVSWNKLSFCDILLKIITFGIYSPHETLAEKHSEKKLMDSFSPSLSQDKMDGEFAHANIDGISIRLCLNKGICSVFYLDGDKIQSTQLSSKEYNNLLSSLPPKQFNLGKVHTITAPVSGNFKTHKPAPEVIETAINCCTSIIPNDDYFHVKDTDFNSVWHDIYRDIRASDSNSTKIYFNNIEIPLKLIADLINELGINEFIDSKKELQMLSYNQVNKIINSNFPQQDLCFQTEKLLFTSLFQDPAFISALTSAFWQSLHITSSSVEHIYAQIMSENIENRLNFMPEQRVINNCGHIIKINAVVPKNDTAISASGGRAYEVSSSILPSHITCNGVGINKIETSYLVHAGTLPSSEGLRNAIPPESRQVSFAIISPDV	not failed
MHEKLLTLCDCAFEARLIELEMRVSFQEQALTEISEALAETRLIGARNAELMRHLLEELGKVRNTLYEHPIDEPPPHY	failed
MDPAGASVASAIGGEGEKFAVGNIYSVKVITGDEFRGIGTKPRPGHLKNTRMVNASFITGLSYLGKTEDPLDSDNFSVDLNGLRAKEALAIRQAEADAERMGVGVTAEAQSIFDALSKTLPVQWENSDILVMKEVRVRSPYLSDCVFGGTDAANNRVKKVLELERRRLQLFGT	failed
